Assay results reported in paper PMC6988801, “Characterization of a Dimeric Arginase From Zymomonas mobilis ZM4” (Frontiers in Microbiology, 2019).

What was measured:
zmARG = target: T1, zmARG (Zymomonas mobilis, UniProt Q5NQE9); assay: arginase activity assay kit, urea colorimetric at […] nm; format: biochemical; details: read-out: % inhibition at 5 mM
T1 construct: gene ZMO0432; full length Met1-Lys290; E. coli BL21(DE3) Star, pSKB3, N-terminal His6 with TEV site (25 extra residues); GH left after cleavage; EDTA-dialysed; dimer 64 kDa

purified protein = substrate: N=C(N)NCCC[C@H](N)C(=O)O; assay: purified protein; format: biochemical, Zymomonas mobilis; details: Mn-dependent enzyme; metal, pH and temperature of the kinetic run not given
[1] = target: the molecule itself; assay: AF4-MALS; asymmetrical flow field-flow fractionation with multi-angle light scattering; Eclipse DUALTEC AF4, DAWN Heleos II 18-angle MALS; Zimm model

Molecule: N[C@@H](CCCCB(O)O)C(=O)O [ABH, 2(S)-amino-6-boronohexanoic acid]
- inhibition at 5000 µM (zmARG): ~95%

B1: zmARG (Zymomonas mobilis subsp. mobilis ZM4 = ATCC 31821) (protein)
chain: MSSINKPLRLIFPQWQGGDNPPYYLGSQLLAWLSPDPKGAVEEVPVPKPTGEPLQEENGIVGRSILIDQLSEARQLIEKHTPDSLVVLGGDCLVSLAPFSWLLEKYKDKLGILWIDSHPDVQTPKEYKNAHAHVLGELMGNGDSDFTRTVKHPVSPQKIMIAGIHDPLPYEANFISEHKIQTCSPEQVRSGAQPVLDWIKNEKIEYLAIHIDLDVLDPHNFRSVLFAKPGRGQHDFGDVAEGKLNIPDVVKLANQAASISKAVGLTIAEHLPWDALNLKNMLEELPLIGK
notes: full length Met1-Lys290; E. coli BL21(DE3) Star, pSKB3, N-terminal His6 with TEV site (25 extra residues); GH left after cleavage; EDTA-dialysed; dimer 64 kDa
- Km (purified protein): 6.8 mM
- kcat (purified protein): 302 s^–1

B2: arginase from Zymomonas mobilis ZM4 (zmARG) (enzyme, Zymomonas mobilis subsp. mobilis ZM4)
chain: GHMSSINKPLRLIFPQWQGGDNPPYYLGSQLLAWLSPDPKGAVEEVPVPKPTGEPLQEENGIVGRSILIDQLSEARQLIEKHTPDSLVVLGGDCLVSLAPFSWLLEKYKDKLGILWIDSHPDVQTPKEYKNAHAHVLGELMGNGDSDFTRTVKHPVSPQKIMIAGIHDPLPYEANFISEHKIQTCSPEQVRSGAQPVLDWIKNEKIEYLAIHIDLDVLDPHNFRSVLFAKPGRGQHDFGDVAEGKLNIPDVVKLANQAASISKAVGLTIAEHLPWDALNLKNMLEELPLIGK
notes: two additional amino acids left at the N-terminus after TEV cleavage of the vector-encoded His6 tag; arginase zmARG, product of the ZMO0432 gene of Zymomonas mobilis subsp. mobilis ZM4, Met1-Lys290, amplified from genomic DNA; Two zinc ions are modelled in the active site of each subunit in the crystal; A Se-Met substituted form (made in B834 (DE3)) was used for phasing only; also called ZMO0432 …
- stoichiometry N [1]: 2
